US9513287

Molecular target: Shiga toxin 2f (Stx2f) holotoxin (Escherichia coli)

B1: monoclonal antibody Stx2f-1 (antibody, V domains shown)
VH: QVQLQQSGPEVVRPGVSVKISCKGSGYTFTDYAIHWVKQSHAKSLEWIGFISTYNGNPNYNKEFKGKATVTVDKSSSTAYLELARLTSEDSAIYFCARDFYGSSSWFAYWGQGTLVTVSA
VL: DIVLTQTPASLAVSLGQRATISCRASESVDSYGDDFMHWYQQKPGQPPKLLIYRVSNLESGIPVRFSGSGSRTDFTLTINPVEADDDATYYCQQSNENPYTFGGGTKLEIK
  Kd: 0.516 nM
